In the supplement of paper PMC10567573:

B1: SCARA5 (parent)
chain: VTEDLRLKDWEHSIALRNISLAKG

Variants of: B1
Experiment: protein stability index of a GFP-peptide fusion (GPS, HEK-293T) (PSI 1-6); higher = more stable
Details: c terminus: a fixed tail appended
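Note: lentivirally expressed fusions sorted by FACS into six bins by GFP to DsRed ratio, PSI derived from sequencing read proportions per bin multiplied by bin number.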

Variant | protein stability index
VTEDLGLKDWEHSIALRNISLAKG | 3.53
VTEDLYLKDWEHSIALRNISLAKG | 2.85
VTEDLWLKDWEHSIALRNISLAKG | 2.62
VTEDLMLKDWEHSIALRNISLAKG | 2.99
VTEDLHLKDWEHSIALRNISLAKG | 3.62
VTEDLILKDWEHSIALRNISLAKG | 3.15
VTEDLSLKDWEHSIALRNISLAKG | 3.27
VTEDLLLKDWEHSIALRNISLAKG | 3.29
VTEDLNLKDWEHSIALRNISLAKG | 3.22
VTEDLVLKDWEHSIALRNISLAKG | 3.95
VTEDLFLKDWEHSIALRNISLAKG | 3.56
VTEDLTLKDWEHSIALRNISLAKG | 3.75
VTEDLKLKDWEHSIALRNISLAKG | 3.66
VTEDLELKDWEHSIALRNISLAKG | 3.58
VTEDLDLKDWEHSIALRNISLAKG | 3.73
VTEWLRLKDWEHSIALRNISLAKG | 2.05
VTEYLRLKDWEHSIALRNISLAKG | 2.01
VTEVLRLKDWEHSIALRNISLAKG | 2.81
VTEDVRLKDWEHSIALRNISLAKG | 3.65
VTEDPRLKDWEHSIALRNISLAKG | 3.77
VTEDTRLKDWEHSIALRNISLAKG | 3.68
VTEDYRLKDWEHSIALRNISLAKG | 3.34
VTEDDRLKDWEHSIALRNISLAKG | 4.14
VTEDGRLKDWEHSIALRNISLAKG | 3.93

Variant | protein stability index
VTEDKRLKDWEHSIALRNISLAKG | 4.14
VTEDWRLKDWEHSIALRNISLAKG | 3.35
VTEDMRLKDWEHSIALRNISLAKG | 3.46
VTEDSRLKDWEHSIALRNISLAKG | 3.89
VTEDIRLKDWEHSIALRNISLAKG | 3.63
VTEDARLKDWEHSIALRNISLAKG | 3.92
VTEDQRLKDWEHSIALRNISLAKG | 3.73
VTEDHRLKDWEHSIALRNISLAKG | 3.91
VTEDRRLKDWEHSIALRNISLAKG | 3.74
VTEDNRLKDWEHSIALRNISLAKG | 3.83
VTEDCRLKDWEHSIALRNISLAKG | 3.34
VTEDFRLKDWEHSIALRNISLAKG | 2.97
VTEDERLKDWEHSIALRNISLAKG | 4.19
VTEDLRLKDWEHVIALRNISLAKG | 3.37
VTEDLRLKDWEHFIALRNISLAKG | 2.64
VTEDLRLKDWEHNIALRNISLAKG | 2.93
VTEDLRLKDWEHTIALRNISLAKG | 3.41
VTEDLRLKDWEHKIALRNISLAKG | 3.23
VTEDLRLKDWEHMIALRNISLAKG | 2.81
VTEDLRLKDWEHQIALRNISLAKG | 3.68
VTEDLRLKDWEHIIALRNISLAKG | 2.85
VTEDLRLKDWEHCIALRNISLAKG | 3.08
VTEDLRLKDWEHHIALRNISLAKG | 3.1
VTEDLRLKDWEHDIALRNISLAKG | 3.65

Variant | protein stability index
VTEDLRLKDWEHRIALRNISLAKG | 3.4
VTEDLRLKDWEHGIALRNISLAKG | 3.01
VTEDLRLKDWEHYIALRNISLAKG | 2.88
VTEDLRLKDWEHLIALRNISLAKG | 2.93
VTEDLRLKDWEHPIALRNISLAKG | 3.25
VTEDLRLKDWEHAIALRNISLAKG | 3.37
VTEDLRLKDWEHWIALRNISLAKG | 2.57
VTEDLRLKDWEHEIALRNISLAKG | 3.58
VTEDLRYKDWEHSIALRNISLAKG | 3.2
VTEDLRSKDWEHSIALRNISLAKG | 3.84
VTEDLRTKDWEHSIALRNISLAKG | 3.39
VTEDLRCKDWEHSIALRNISLAKG | 3.39
VTEDLRGKDWEHSIALRNISLAKG | 3.67
VTEDLRFKDWEHSIALRNISLAKG | 3.75
VTEDLRNKDWEHSIALRNISLAKG | 3.83
VTEDLREKDWEHSIALRNISLAKG | 4.21
VTEDLRRKDWEHSIALRNISLAKG | 2.81
VTEDLRQKDWEHSIALRNISLAKG | 3.63
VTEDLRWKDWEHSIALRNISLAKG | 2.98
VTEDLRVKDWEHSIALRNISLAKG | 3.71
VTEDLRDKDWEHSIALRNISLAKG | 3.89
VTEDLRPKDWEHSIALRNISLAKG | 3.89
VTEDLRMKDWEHSIALRNISLAKG | 3.45
VTEDLRIKDWEHSIALRNISLAKG | 3.13

Variant | protein stability index
VTEDLRAKDWEHSIALRNISLAKG | 3.35
VTEDLRHKDWEHSIALRNISLAKG | 3.69
VTEDLRKKDWEHSIALRNISLAKG | 3.91
VTEDLRLKDTEHSIALRNISLAKG | 4.26
VTEDLRLKDEEHSIALRNISLAKG | 4.62
VTEDLRLKDLEHSIALRNISLAKG | 3.55
VTEDLRLKDNEHSIALRNISLAKG | 4.26
VTEDLRLKDCEHSIALRNISLAKG | 4.11
VTEDLRLKDREHSIALRNISLAKG | 4.45
VTEDLRLKDIEHSIALRNISLAKG | 3.41
VTEDLRLKDVEHSIALRNISLAKG | 4.14
VTEDLRLKDHEHSIALRNISLAKG | 4.37
VTEDLRLKDPEHSIALRNISLAKG | 4.41
VTEDLRLKDAEHSIALRNISLAKG | 4.28
VTEDLRLKDKEHSIALRNISLAKG | 4.22
VTEDLRLKDYEHSIALRNISLAKG | 3.62
VTEDLRLKDSEHSIALRNISLAKG | 4.39
VTEDLRLKDQEHSIALRNISLAKG | 4.29
VTEDLRLKDFEHSIALRNISLAKG | 3.12
VTEDLRLKDGEHSIALRNISLAKG | 4.63
VTEDLRLKDDEHSIALRNISLAKG | 4.67
VTEDLRLKDMEHSIALRNISLAKG | 3.67
